In patent publication US20090280128A1:

Columns and labels:
[1] = target: C-FLAG ILT7 (human ILT7 with FLAG tag at the C terminus, co-expressed with Myc-FcRγ) (human) (UniProt P59901); assay: flow cytometry on ILT7-CHO cells, control antibody, APC goat anti-mouse IgG then FITC donkey anti-goat IgG
[2] = target: C-FLAG ILT7 (human ILT7 with FLAG tag at the C terminus, co-expressed with Myc-FcRγ) (human) (UniProt P59901); assay: flow cytometry on ILT7-CHO cells, control antibody, APC-labeled goat anti-mouse IgG

Sequence of C-FLAG ILT7 (human ILT7 with FLAG tag at the C terminus, co-expressed with Myc-FcRγ) (human) (P59901 other isoform, or with tags, fused parts or gaps): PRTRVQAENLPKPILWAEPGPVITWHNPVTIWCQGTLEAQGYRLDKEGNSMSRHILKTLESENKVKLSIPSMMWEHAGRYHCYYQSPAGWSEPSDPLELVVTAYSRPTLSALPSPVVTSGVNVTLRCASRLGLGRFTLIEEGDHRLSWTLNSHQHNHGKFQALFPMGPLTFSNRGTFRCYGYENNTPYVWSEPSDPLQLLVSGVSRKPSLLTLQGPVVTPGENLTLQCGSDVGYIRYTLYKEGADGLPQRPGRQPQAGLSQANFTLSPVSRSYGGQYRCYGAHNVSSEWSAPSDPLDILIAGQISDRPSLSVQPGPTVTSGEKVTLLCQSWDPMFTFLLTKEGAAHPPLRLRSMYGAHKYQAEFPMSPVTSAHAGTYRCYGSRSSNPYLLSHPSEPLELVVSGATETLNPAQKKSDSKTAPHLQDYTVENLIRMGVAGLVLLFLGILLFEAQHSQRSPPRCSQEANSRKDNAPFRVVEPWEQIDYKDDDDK

Mouse IgG2a (antibody)
FITC mean fluorescence intensity, incubation at 4 °C [1]: 3.7
FITC mean fluorescence intensity, incubation at 37 °C [1]: 4.2
APC mean fluorescence intensity, incubation at 4 °C [2]: 3
APC mean fluorescence intensity, incubation at 37 °C [2]: 3.64
